From patent US20230235040A1 (ALMIRALL S A, published 2023)
Substitutions are numbered along the chain they refer to.

T1: hu-IL-36α (human IL-36α, N-terminally truncated active form K6-F158) (human, UniProt Q9UHA7 6-158)
T1 construct: Purification tag cleaved off; Biotinylated where captured (SPR, some ELISAs); also called hu-IL-36a
T1 sequence: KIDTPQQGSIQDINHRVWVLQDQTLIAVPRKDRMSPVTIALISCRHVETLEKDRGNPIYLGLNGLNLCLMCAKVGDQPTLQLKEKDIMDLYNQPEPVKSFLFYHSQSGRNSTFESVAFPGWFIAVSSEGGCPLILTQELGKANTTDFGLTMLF

T2: hu-IL-36γ (human IL-36γ, N-terminally truncated active form S18-D169) (human, UniProt Q9NZH8 18-169)
T2 construct: Purification tag cleaved off; Biotinylated where captured; also called hu-IL-36g
T2 sequence: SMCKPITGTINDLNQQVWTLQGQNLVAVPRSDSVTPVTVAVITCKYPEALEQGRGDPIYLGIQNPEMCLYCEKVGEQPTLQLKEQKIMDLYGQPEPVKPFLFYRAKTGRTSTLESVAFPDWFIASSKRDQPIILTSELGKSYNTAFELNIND

T3: cy-IL-36α (cynomolgus monkey IL-36α, K6-F158) (cynomolgus monkey, UniProt Q9UHA7 14-158 (human entry))
T3 construct: Purification tag cleaved off
T3 chain: T1 sequence with I2S, D3E, T4M, Q7P, G8V, T24I, M34V, A40S, V74A

T4: cy-IL-36γ (cynomolgus monkey IL-36γ, S18-K168) (cynomolgus monkey, UniProt Q9NZH8 18-167 (human entry))
T4 construct: Purification tag cleaved off
T4 chain: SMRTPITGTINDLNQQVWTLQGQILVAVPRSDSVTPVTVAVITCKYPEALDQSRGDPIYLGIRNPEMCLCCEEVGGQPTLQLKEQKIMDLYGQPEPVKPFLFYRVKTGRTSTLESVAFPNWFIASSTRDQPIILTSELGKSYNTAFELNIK

T5: hu-IL-36β (human IL-36β, N-terminally truncated active form R5-E157) (human)
T5 construct: Purification tag cleaved off; Biotinylated where captured; also called hu-IL-36b
T5 chain: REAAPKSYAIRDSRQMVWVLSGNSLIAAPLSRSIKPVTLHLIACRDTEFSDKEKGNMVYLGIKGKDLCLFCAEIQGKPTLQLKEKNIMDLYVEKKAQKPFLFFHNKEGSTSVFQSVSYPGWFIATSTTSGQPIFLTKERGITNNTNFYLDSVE

B1: mAb1.0 Fab (yeast clone culture supernatant) (Fab, V domains shown)
VH: QVQLVESGGGVVQPGRSLRLSCAASGFSFSAYAMHWVRQAPGKGLEWVAVISYDGTNEYYADSVKGRFTISRDNSKNTLYLQMNSLRAEDTAVYYCARGIRIFTSYFDSWGQGTLVTVSS
VL: QSVLTQPPSVSGAPGQRVTISCTGSSSNIGAHYDVHWYQQLPGTAPKLLIYSNNNRPSGVPDRFSGSKSGTSASLAITGLQAEDEADYYCQSYDYSLRGYVFGGGTKLTVL
notes: Human Fab secreted by the yeast clone, not purified
B2: mAb5.0 Fab (yeast clone culture supernatant) (Fab, V domains shown)
VH: EVQLLESGGGLVQPGGSLRLSCAASGFTFSTYAMSWVRQAPGKGLEWVSGISGGSGYTYYADSVKGRFTISRDNSKNTLYLQMNSLRAEDTAVYYCARVVTYRDPPASFDYWGQGTLVTVSS
VL: B1 VL with S52G, N54D, R98K, G99A
notes: as for B1
B3: mAb6_2 Fab (Fab, V domains shown)
VH: ELQLQESGPGLVKPSETLSLTCTVSGGSITSSNYYWGWIRQPPGKGLEWIGSIDYTGSTYYNPSLKSRVTISVDTSKNQFSLKLSSVTAADTAVYYCARGKYYETYLGFDVWGQGTLVTVSS
VL: B1 VL with Q1E, S52G, N54D, R98S
B4: mAb6_2.1 Fab (Fab, V domains shown)
VH: B3 VH with S32T, S52N, P63A, R99T
VL: B1 VL with Q1E, S52G, N54D, R98S
notes: Purified Fab (Biacore, HaCat assay)
B5: mAb6_2.2 Fab (Fab, V domains shown)
VH: B3 VH with Y34A, Y60A, R99H
VL: B1 VL with Q1E, S52G, N54D, R98S
notes: as for B4
B6: mAb6_2.3 Fab (Fab, V domains shown)
VH: B3 VH with S31A, P63T, R99T
VL: B1 VL with Q1E, S52G, N54D, R98S
notes: as for B4
B7: mAb6_2.4 Fab (Fab, V domains shown)
VH: B3 VH with S31A, R99T
VL: B1 VL with Q1E, S52G, N54D, R98S
notes: Purified Fab
B8: mAb2.0 Fab (yeast clone culture supernatant) (Fab, V domains shown)
VH: QLQLQESGPGLVKPSETLSLTCTVSGGSISTSSYYWGWIRQPPGKGLEWIGSIYYTGNTYYNPSLKSRVTISVDTSKNQFSLKLSSVTAADTAVYYCARVRYGVGVPRYFDPWGQGTLVTVSS
VL: B1 VL with S52G, N54D, R98S
notes: as for B1
B9: mAb7.0 recombinant human IgG1 (antibody, V domains shown)
VH: QVQLVESGGGVVQPGRSLRLSCAASGFTFSSYGMHWVRQAPGKGLEWVAVISYGGSERYYADSVKGRFTISRDNSKNTLYLQMNSLRAEDTAVYYCAREPWYSSRGWTGYGFDVWGQGTLVTVSS
VL: EIVLTQSPGTLSLSPGERATLSCRASQSVSSNYLAWYQQKPGQAPKLLIYSASSLQSGVPSRFSGSGSGTDFTLTISSLQPEDFATYYCQQTYSYPPTFGQGTKVEIK
B10: mAb8.0 recombinant human IgG1 (antibody, V domains shown)
VH: QVQLVQSGAEVKKPGSSVKVSCKASGGTFSNYAISWVRQAPGQGLEWMGGILPILGTVDYAQKFQGRVTITADESTSTAYMELSSLRSEDTAVYYCAREPWYRLGAFDVWGQGTLVTVSS
VL: DIQMTQSPSSLSASVGDRVTITCRASQTIYKYLNWYQQKPGKAPKLLIYAASSLQSGVPSRFSGSGSGTDFTLTISSLQPEDFATYYCQQYSSIPYTFGQGTKVEIK
B11: mAb3.0 Fab (yeast clone culture supernatant) (Fab, V domains shown)
VH: B8 VH with T31S, S32T, Y54H, T56S, R101H, V104G, G105Y, V106I, Y109R, P112H
VL: B1 VL with H32G, S52G, N54T
notes: as for B1
B12: mAb4.0 Fab (yeast clone culture supernatant) (Fab, V domains shown)
VH: QLQLQESGPGLVKPSETLSLTCTVSGGSIGSRSYYWGWIRQPPGKGLEWIGSIHYSGTTYYNPSLKSRVTISVDTSKNQFSLKLSSVTAADTAVYYCARVAPSYPRVFDYWGQGTLVTVSS
VL: B1 VL with H32G, S52G, N54R, G99V
notes: as for B1

Tests used:
[1] = biological target: T1, hu-IL-36α (human IL-36α, N-terminally …); experiment: ELISA, yeast Fab supernatant, anti-Fab-HRP
[2] = biological target: T2, hu-IL-36γ (human IL-36γ, N-terminally …); experiment: ELISA, yeast Fab supernatant, anti-Fab-HRP
[3] = biological target: T3, cy-IL-36α (cynomolgus monkey IL-36α, …); experiment: ELISA on coated cy- and hu-IL-36α, yeast Fab supernatant; ratio of OD450
Protocol: (§1) Cell supernatants from yeast clones of interest were tested for binding to human IL-36 by ELISA as described above. To compare the binding of these supernatants to human and cynomolgus monkey IL-36, IL-36 proteins were coated at 2.5 μg/mL on 96-well Nunc MaxiSorp plates (Thermo Fisher) and the plates blocked with 5% goat serum in PBS. Yeast supernatants were diluted 1:1 with PBST containing 1% w/v BSA and added to the ELISA plates for 1-1.5 hours with agitation. Bound Fab was detected by incubating the plates with F(ab′)2-HRP (Jackson ImmunoResearch). The ELISAs were developed for 3-10 minutes by addition of 50 μL/well of tetramethylbenzidine (TMB) microwell peroxidase substrate (Scytek Laboratories, Inc., Logan, Utah, USA) and enzymatic color development was stopped by acidification with 50 µL/well of 2 N H₂SO₄ (Sigma-Aldrich Corporation, St. Louis, Mo., USA). The optical density of the samples at a wavelength of 450 nm (OD450) was analyzed with a SpectraMax i3X plate reader (Molecular Devices LLC, San Jose, Calif., USA). To estimate the relative affinity of each clone for cynomolgus monkey IL-36 and human IL-36 in this assay, a ratio of OD450 (OD450_cyIL-36/OD450_huIL-36) was calculated for each clone and IL-36 cytokine.

[4] = biological target: T4, cy-IL-36γ (cynomolgus monkey IL-36γ, …); experiment: ELISA on coated cy- and hu-IL-36γ, yeast Fab supernatant; ratio of OD450
Protocol: as §1

[5] = biological target: T1, hu-IL-36α (human IL-36α, N-terminally …); experiment: cell-based or functional assay
[6] = biological target: T2, hu-IL-36γ (human IL-36γ, N-terminally …); experiment: cell-based or functional assay
[7] = biological target: T5, hu-IL-36β (human IL-36β, N-terminally …); experiment: phage competition ELISA: Fab on phage, soluble hu-IL-36β titrated against coated hu-IL-36β
Protocol: Selected phages with top binding signal were purified to perform phage competition ELISA. The optimal phage concentration was incubated with serially-diluted human IL-36β in ELISA buffer (0.5% BSA and 0.05% TWEEN©20 in PBS) in NUNC F plate for two hours. 80 μl of the mixture was transferred to human IL-36β coated wells for 15 min to capture unbound phage. The plate was washed with wash buffer (0.05% TWEEN©20 in PBS), and HRP-conjugated anti-M13 antibody (Sino biological, Cat #11973-MM05-H-50) was added in ELISA buffer for 30 min. The plate was incubated at room temperature for one hour with agitation, washed six times with wash buffer and developed for 15 minutes by addition of 100 μL/well of 1 Step Turbo™ B substrate (ThermoFisher, Cat #34022). The enzymatic reaction was stopped using 50 μL/well of 2N H₂SO₄. Plates were analyzed using a Perkin Elmer plate reader (Envision 2103 multilabel reader) at 450 nm. The absorbance at 450 nm was plotted as a function of antigen concentration in solution to determine phage IC₅₀. […] Real affinities for purified Fab molecules for the phage variants were also measured using Biacore (method described in detail in section E below).

[8] = biological target: T5, hu-IL-36β (human IL-36β, N-terminally …); experiment: SPR (Biacore 8K), biotinylated hu-IL-36β captured on CAP chip, Fab injected, 37°C
Protocol: Briefly, a 1:4 dilution of Biotin CAPture Reagent (GE) into HBS-EP buffer (0.01 M HEPES pH 7.4, 0.15 M NaCl, 3 mM EDTA, 0.005% Surfactant P20) was applied to a CAP sensor chip at 2 uL/min flow rate. For kinetics measurements, 6 nM biotinylated human IL-36β was captured at 10 uL/min to achieve ˜50 response units in the second flow cell (FC2). FC1 was kept as a reference. […] The sensorgram was recorded and subject to reference and buffer subtraction before evaluating by BIACORE® 8K Evaluation Software (version 1.1.1.7442). Association rates (kₒₙ) and dissociation rates (koff) were calculated using a simple one-to-one Langmuir binding model.

[9] = biological target: T5, hu-IL-36β (human IL-36β, N-terminally …); experiment: SPR (Biacore), purified Fab, biotinylated hu-IL-36β captured
[10] = biological target: T5, hu-IL-36β (human IL-36β, N-terminally …); experiment: cell-based or functional assay
[11] = biological target: T5, hu-IL-36β (human IL-36β, N-terminally …); experiment: cell-based or functional assay

Row | Binder | ELISA OD450 [1] [OD450] | ELISA OD450 [2] [OD450] | ELISA OD450cyIL-36/OD450hu-IL-36 [3] [ratio] | ELISA OD450cyIL-36/OD450hu-IL-36 [4] [ratio] | % Inhibition, HEK-Blue IL-36R SEAP reporter assay [5] [%] | % Inhibition, HEK-Blue IL-36R SEAP reporter assay [6] [%] | IC50, IL-36-stimulated IL-8 secretion by HaCat cells [10] [nM] | Kd [9] [nM] | also measured
1 | B1 | 0.94 | 2.43 | 0.6 | 1.3 | 70 | 31 |  |  | 
2 | B2 | 2.05 | 2.08 | 0.5 | 1 | 75 | 75 |  |  | 
3 | B3 |  |  |  |  |  |  | 3.19 |  | apparent IC50 (pooled screen) [7]: 8.57 nM; apparent Kd (pooled screen) [8]: 14.7 nM; apparent koff (pooled screen) [8]: 0.00128 s⁻¹; apparent kon (pooled screen) [8]: 87200 M⁻¹ s⁻¹; apparent Kd (pooled screen) [9]: 40.1 nM
4 | B4 |  |  |  |  |  |  | 1.64 | 3.5 | IC50 [7]: 0.77 nM
5 | B5 |  |  |  |  |  |  | 2.22 | 2.55 | IC50 [7]: 1.04 nM
6 | B6 |  |  |  |  |  |  | 1.31 | 1.62 | IC50 [7]: 0.49 nM
7 | B7 |  |  |  |  |  |  | 0.13 | 1.05 | 
8 | B8 | 2.53 | 2.5 | 0.7 | 1.2 | 91 | 89 |  |  | 
9 | B9 |  |  |  |  |  |  |  |  | IC50, HEK-Blue IL-36R SEAP reporter assay [11]: 1.4 nM
10 | B10 |  |  |  |  |  |  |  |  | IC50, HEK-Blue IL-36R SEAP reporter assay [11]: 0.34 nM
11 | B11 | 1.63 | 2.11 | 0.5 | 1 | 40 | 64 |  |  | 
12 | B12 | 2.16 | 2.3 | 0.5 | 1.2 | 91 | 57 |  |  | 
